The text below walks through data of patent publication US20230012273A1 (Boehringer Ingelheim, published 2023).

In experiment [1] the target is ED-tagged human SIRPα V1 receptor on Jurkat signaling reporter cells (human, UniProt P78324 31-504). As to the kind of experiment: cell-based or functional assay.
Experiment [2] addresses ED-tagged human SIRPα V2 receptor on Jurkat signaling reporter cells (human, UniProt P78324 31-504). The experiment can be described thus: cell-based or functional assay.
Experiment [3] has as its target T1, full-length human SIRPαV1 (NP_542970.1) on cells (human, UniProt P78324 31-504).
T1 construct: one molecule for CHO-K1 and Expi-CHO transfectants (NP_542970.1) and for endogenous V1 on U-937 cells and on CD14+ monocytes of V1/V1 donors; also called CHO-hSIRPαV1; αV1 WT
The experiment can be described thus: flow cytometry, Expi-CHO cells. As to the method: (§1) Expi-CHO parental cells are transduced with lentiviruses containing either full-length wild-type human SIRPαV1 allele (NP_542970.1) or full-length human SIRPαV1 with amino acid point mutations (Table 56) and sorted to achieve matching expression levels. These cells are blocked with donkey IgG and incubated on ice with increasing concentrations of antibodies for 60 minutes, washed and stained with AF647-conjugated donkey F(ab′)₂ anti-human IgG antibodies. Stained cells are washed, fixed, and analyzed by flow cytometry. Median fluorescent intensity is determined and used as a measure of antibody binding.
A general note: A flow cytometer gives signals particle by particle.

Experiment [4] has as its target T2, full-length human SIRPαV1 N→E on Expi-CHO cells (human, UniProt P78324 31-504).
T2 construct: the entry already carries the change (TKRN to TKRE)
As to the kind of experiment: flow cytometry, Expi-CHO cells. As to the method: as §1

Experiment [5] concerns the target T3, full-length human SIRPαV1 D→E on Expi-CHO cells (human, UniProt P78324 31-504).
T3 construct: the entry already carries the change (PDDV to PEDV)
The experiment can be described thus: flow cytometry, Expi-CHO cells. As to the method: as §1

Experiment [6] addresses T4, full-length human SIRPαV2 (CAA71403.1) on cells (human, UniProt P78324 31-504).
T4 construct: one molecule for CHO-K1 and Expi-CHO transfectants (CAA71403.1) and for endogenous V2 on THP-1 cells and on CD14+ monocytes of V2/V2 donors; also called CHO-hSIRPαV2; αV2 WT
The experiment can be described thus: flow cytometry, Expi-CHO cells. On the procedure: as §1, with “SIRPαV2” for “SIRPαV1”, “(CAA71403.1)” for “(NP_542970.1)”, “58)” for “56)”

The target of experiment [7] is T5, full-length human SIRPαV2 E→N on Expi-CHO cells (human, UniProt P78324 31-504).
T5 construct: the entry already carries the change (TKRE to TKRN)
The experiment can be described thus: flow cytometry, Expi-CHO cells. As to the method: as §1, with “SIRPαV2” for “SIRPαV1”, “(CAA71403.1)” for “(NP_542970.1)”, “58)” for “56)”

Experiment [8] concerns the target T6, full-length human SIRPαV2 D→E on Expi-CHO cells (human, UniProt P78324 31-504).
T6 construct: the entry already carries the change (SPDT to SPET)
The experiment can be described thus: flow cytometry, Expi-CHO cells. As to the method:
as §1, with “SIRPαV2” for “SIRPαV1”, “(CAA71403.1)” for “(NP_542970.1)”, “58)” for “56)”

Experiment [9] deals with T7, full-length human SIRPβL H→D on Expi-CHO cells (human, UniProt Q5TFQ8 30-398).
T7 construct: the entry already carries the change (PDHV to PDDV); also called βL WT H→D
The experiment can be described thus: flow cytometry, Expi-CHO cells. As to the method: Expi-CHO parental cells are transduced with lentiviruses containing either full-length wild-type human SIRPβL (Q5TFQ8) or full-length human SIRPβL with a single amino acid point mutation (Table 62) and sorted to achieve matching expression levels. These cells are blocked with donkey IgG and incubated on ice with increasing concentrations of antibodies for 60 minutes, washed and stained with AF647-conjugated donkey F(ab′)₂ anti-human IgG antibodies. Stained cells are washed, fixed, and analyzed by flow cytometry. Median fluorescent intensity is determined and used as a measure of antibody binding.
A single amino acid substitution (H→D) introduced within the loop region maintained, strengthened, or facilitated antibody binding to these cells (FIG. 34B, Table 63).

Experiment [10] addresses T1, full-length human SIRPαV1 (NP_542970.1) …. The experiment can be described thus: flow cytometry, CD14+ monocytes V1V1. An outline of the steps:
(§2)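 PBMCs from donors homozygous for SIRPα V1 or V2 were blocked with donkey IgG and incubated on ice for 60 minutes with increasing antibody concentrations. Bound antibody detected with AF647 donkey F(ab′)₂ anti-human IgG. Median fluorescence intensity of CD14+ cells served as the binding measure.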

In experiment [11] the target is T4, full-length human SIRPαV2 (CAA71403.1) …. The experiment can be described thus: flow cytometry, CD14+ monocytes V2V2. In a few lines:
as §2

Experiment [12] has the same target. As to the kind of experiment: flow cytometry, THP-1 cells (endogenous V2). On the procedure: Antibody binding to human monocytic cell lines homozygous for the V1-allele (U-937) or the V2-allele (THP-1) of SIRPα is assessed. U-937 or THP-1 cells are blocked with donkey IgG and incubated on ice with increasing concentrations of antibodies for 60 minutes, washed and stained with AF647-conjugated donkey F(ab′)₂ anti-human IgG secondary reagent. Cells are washed, fixed, and analyzed by flow cytometry. Median fluorescent intensity is determined and used as a measure of antibody binding.

Experiment [13] concerns the target T1, full-length human SIRPαV1 (NP_542970.1) …. As to the kind of experiment: flow cytometry, competition with CD47 tetramer, monocytes V1V1. On the procedure: Cells are washed, fixed, and analyzed by flow cytometry. Median fluorescent intensity of CD14+gated population is determined and used as a measure of CD47 binding.
Experiment [14] deals with T8, full-length human SIRPβ1 D→H on Expi-CHO cells (human, UniProt O00241 30-398).
T8 construct: the entry already carries the change (PDDV to PDHV)
The experiment can be described thus: flow cytometry, Expi-CHO cells expressing full-length human SIRPβ1 D→H. On the procedure:
These cells are blocked with donkey IgG and incubated on ice with increasing concentrations of antibodies for 60 minutes, washed and stained with AF647-conjugated donkey F(ab′)₂ anti-human IgG antibodies. Stained cells are washed, fixed, and analyzed by flow cytometry. Median fluorescent intensity is determined and used as a measure of antibody binding.

B1: Antibody E (antibody, human IgG1, kappa, L234A L235A)
heavy: not shown
light: DIVMTQSPLSLPVTPGEPASISCKSSQSLLYSNGYNYLDWYLQRPGQSPQLLIYLGSNRASGVPDRFSGSGSGTDFTLKISRVEAEDVGVFYCMQALQTPLTFGGGTKVEIKRTVAAPSVFIFPPSDEQLKSGTASVVCLLNNFYPREAKVQWKVDNALQSGNSQESVTEQDSKDSTYSLSSTLTLSKADYEKHKVYACEVTHQGLSSPVTKSFNRGEC
In the case of B1, the “Blockade of Cellular CD47-Mediated SIRPα Signaling; IC50” value in [1] was 40 pM. Also, the “Blockade of Cellular CD47-Mediated SIRPα Signaling; IC50 (* Inhibition plateaus at <100%)” value in experiment [2] was 40 pM. For the same molecule, the EC50 – broadly, the concentration needed to bring the measured effect to its halfway point – in experiment [3] was found to be 500 pM; in experiment [4], 500 pM; in experiment [5], 400 pM; in experiment [6], 300 pM; in experiment [7] it was 300 pM; in experiment [8], 300 pM. Moreover, the EC50 stood at 500 pM in experiment [9], 400 pM in [10], 700 pM in experiment [11] and 400 pM in experiment [12]. Also, the IC50 (usually the concentration that gives 50% inhibition) in experiment [13] worked out at 90 pM. Also, the binding result in experiment [14] was “no binding (tested: about 67 nM)”.

B2: Antibody D (antibody, human IgG1, kappa, L234A L235A, V domains shown)
VH: EVQLVESGGGLVQPGGSLRLSCAASGFTFSSFDMHWVRQPTGKGLEWVSTIGIAGDTYFPGSVKGRFTISRENAKNSLYLQMNSLRAGDTAVYYCARGGNWDDALDIWGQGTMVTVSS
VL: DIQMTQSPSSLSASVGDRVTITCRASQDINNYLAWFQQKPGKAPKSLIYTASSLQSGVPSKFSGSGSGTDFTLTISSLQPEDFATYYCQQYNTYPYTFGQGTKLEIKR
As to B2, the “Blockade of Cellular CD47-Mediated SIRPα Signaling; IC50” value in [1] and in experiment [2] was 40 pM each time. For the same molecule, the EC50 in experiment [3] was 300 pM; in [4] it was 300 pM; in experiment [5], 200 pM; in [6], 200 pM; in experiment [7] it was 200 pM; in experiment [8], 600 pM. Besides, the concentration giving a half-maximal response (EC50) in experiment [9] came out at 200 pM; in experiment [10], 300 pM; in [11], 200 pM; in experiment [12], 300 pM. This molecule also yielded an IC50 in [13] of 30 pM. In addition, the binding result in experiment [14] is given as “no binding (tested: about 67 nM)”.
